According to the RNAGym collection of RNA variant scans (doi:10.7554/elife.80360):

B1: HDV Ribozyme (parent)
chain: GGCCGGCAUGGUCCCAGCCUCCUCGCUGGCGCCGGCUGGGCAACAUUCCGAGGGGACCGUCCCCUCGGUAAUGGCGAAUGGGACCCA

Variants of: B1
Test: self-cleavage, relative activity (ratio to wild type); higher = more cleavage; co-transcriptional

Variant | self-cleavage
GGCCGGCAUGGUCCCAGCCUCCUCGCUGGCGCCGGCCGGGCAACAUUCCGAGGGGACCGUCCCCUCGGUAAUGGCGAAUGGGCCCCA [U37C A83C] | 0.383
GGCCGGCAUGGUCCCAGCCUCCUCGCUGGCGCCGGCAGGGCAACAUUCCGAGGGCACCGUCCCCUCGGUAAUGGCGAAUGGGACCCA [U37A G55C] | 0.299
GGCCGGCAUGGUCCCAGCCUCCUCGCUGGCGCCGGCAGGGCAACAUUCCGAGGGGACCGUCCCCUCGGAAAUGGCGAAUGGGACCCA [U37A U69A] | 0.101
GGCCGGCAUGGUCCCAGCCUCCUCGCUGGCGCCGGCAGGGCAACAUUCCGAGGGGACCGUCCCCUCGGCAAUGGCGAAUGGGACCCA [U37A U69C] | 0.415
GGCCGGCAUGGUCCCAGCCUCCUCGCUGGCGCCGGCAGGGCAACAUACCGAGGGGACCGUCCCCUCGGUAAUGGCGAAUGGGACCCA [U37A U47A] | 0.201
GGCCGGCAUGGUCCCAGCCUCCUCGCUGGCGCCGGCAGGGCAACAUUCCGAGAGGACCGUCCCCUCGGUAAUGGCGAAUGGGACCCA [U37A G53A] | 0.0594
GGCCGGCAUGGUCCCAGCCUCCUCGCUGGCGCCGGCAGGGCAACAUUCCGAGUGGACCGUCCCCUCGGUAAUGGCGAAUGGGACCCA [U37A G53U] | 0.302
GGCCGGCAUGGUCCCAGCCUCCUCGCUGGCGCCGGCAGGGCAACAUUCCGAGGGGACCGUCCCCUCGGUAAUGGCGAAUGGCACCCA [U37A G82C] | 0.0405
GGCCGGCAUGGUCCCAGCCUCCUCGCUGGCGCCGGCAGGUCAACAUUCCGAGGGGACCGUCCCCUCGGUAAUGGCGAAUGGGACCCA [U37A G40U] | 0.157
GGCCGGCAUGGUCCCAGCCUCCUCGCUGGCGCCGGCAGGCCAACAUUCCGAGGGGACCGUCCCCUCGGUAAUGGCGAAUGGGACCCA [U37A G40C] | 0.0519
GGCCGGCAUGGUCCCAGCCUCCUCGCUGGCGCCGGCAGGGCAACAUUCCCAGGGGACCGUCCCCUCGGUAAUGGCGAAUGGGACCCA [U37A G50C] | 0.0489
GGCCGGCAUGGUCCCAGCCUCCUCGCUGGCGCCGGCAGGGCAACAUUCCUAGGGGACCGUCCCCUCGGUAAUGGCGAAUGGGACCCA [U37A G50U] | 0.128
GGCCGGCAUGGUCCCAGCCUCCUCGCUGGCGCCGGCCGGGCAACAUUCCGAGGGGACCGUCCCCUCGGUAAUGGCGGAUGGGACCCA [U37C A77G] | 1.03
GGCCGGCAUGGUCCCAGCCUCCUCGCUGGCGCCGGCCGGGCAACAUUCCGAGGGGACCGUCCCCUCGGUAAUGGCGCAUGGGACCCA [U37C A77C] | 0.415
GGCCGGCAUGGUCCCAGCCUCCUCGCUGGCGCCGGCCGGGCAACAUUCCGAGGGGACCGUCCCCUCGGUAAUGGCGUAUGGGACCCA [U37C A77U] | 0.388
GGCCGGCAUGGUCCCAGCCUCCUCGCUGGCGCCGGCAGGGCAACAUUCCGAGGGGACCGUCCCCCCGGUAAUGGCGAAUGGGACCCA [U37A U65C] | 0.225

Variant | self-cleavage
GGCCGGCAUGGUCCCAGCCUCCUCGCUGGCGCCGGCAGGGCAACAUUCCGAGGGGACCGUCCCCUCGGUAACGGCGAAUGGGACCCA [U37A U72C] | 0
GGCCGGCAUGGUCCCAGCCUCCUCGCUGGCGCCGGCAGGGCAACAUUCCGAGGGGACCGUCCCCUCGGUAAUGGCGAAUUGGACCCA [U37A G80U] | 0.0727
GGCCGGCAUGGUCCCAGCCUCCUCGCUGGCGCCGGCAGGGCAACAUUCCGAGGGGACCGUCCCCUCGGUAAUGGCGAAUAGGACCCA [U37A G80A] | 0.145
GGCCGGCAUGGUCCCAGCCUCCUCGCUGGCGCCGGCCGGGCAACAUUCCGCGGGGACCGUCCCCUCGGUAAUGGCGAAUGGGACCCA [U37C A51C] | 0.966
GGCCGGCAUGGUCCCAGCCUCCUCGCUGGCGCCGGCCGGGCAACAUUCCGUGGGGACCGUCCCCUCGGUAAUGGCGAAUGGGACCCA [U37C A51U] | 0.923
GGCCGGCAUGGUCCCAGCCUCCUCGCUGGCGCCGGCAGGGCAACAUUCCGAGGGGACCGUCCCCUCGGUAAUGACGAAUGGGACCCA [U37A G74A] | 0.166
GGCCGGCAUGGUCCCAGCCUCCUCGCUGGCGCCGGCCGGGCAAAAUUCCGAGGGGACCGUCCCCUCGGUAAUGGCGAAUGGGACCCA [U37C C44A] | 0.499
GGCCGGCAUGGUCCCAGCCUCCUCGCUGGCGCCGGCCGGGCAAGAUUCCGAGGGGACCGUCCCCUCGGUAAUGGCGAAUGGGACCCA [U37C C44G] | 0.63
GGCCGGCAUGGUCCCAGCCUCCUCGCUGGCGCCGGCCGGGCAACAUUCCGAGGGGACCGUCCCCUCGGUAUUGGCGAAUGGGACCCA [U37C A71U] | 0.807
GGCCGGCAUGGUCCCAGCCUCCUCGCUGGCGCCGGCCGGGCAACAUUCCGAGGGGACCGUCCCCUCGGUACUGGCGAAUGGGACCCA [U37C A71C] | 0.917
GGCCGGCAUGGUCCCAGCCUCCUCGCUGGCGCCGGCCGGGCAACAUUCCGAGGGGACCGUCCCCUCGGUAGUGGCGAAUGGGACCCA [U37C A71G] | 0.751
GGCCGGCAUGGUCCCAGCCUCCUCGCUGGCGCCGGCAGGGCAACAUUCCGAGGCGACCGUCCCCUCGGUAAUGGCGAAUGGGACCCA [U37A G54C] | 0.308
GGCCGGCAUGGUCCCAGCCUCCUCGCUGGCGCCGGCAGGGCAACAUUCCGAGGGGACCGUCCCCUCAGUAAUGGCGAAUGGGACCCA [U37A G67A] | 0.215
GGCCGGCAUGGUCCCAGCCUCCUCGCUGGCGCCGGCAGGGCAACAUUCCGAGGGGACCGUCCCCUCUGUAAUGGCGAAUGGGACCCA [U37A G67U] | 0.272
GGCCGGCAUGGUCCCAGCCUCCUCGCUGGCGCCGGCCGGGCAACAUUCCGAGGGGGCCGUCCCCUCGGUAAUGGCGAAUGGGACCCA [U37C A56G] | 1.23
GGCCGGCAUGGUCCCAGCCUCCUCGCUGGCGCCGGCCGGGCAACAUUCCGAGGGGUCCGUCCCCUCGGUAAUGGCGAAUGGGACCCA [U37C A56U] | 1.09
